Test results taken from article PMC5585231, “Endocytic sorting motif interactions involved in Nef-mediated downmodulation of CD4 and CD3” (Nature Communications, 2017).

Biological target: T1, CD3 ζ SNID2 peptide (22-mer) (human)
T1 construct: also called second ITAM motif of CD3 ζ; source: synthetic peptide (in house, Boc chemistry, RP-HPLC)
T1 peptide: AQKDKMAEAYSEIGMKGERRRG
Experiment: ITC; Nef (typically 200 µM) injected stepwise from the syringe into 20 µM CD3 ζ peptide in the cell; 20 mM HEPES pH 8.0, 100 mM NaCl, 25 °C; MicroCal iTC200
Details: both partners purified

B1: SIVmac239 Nef (66-235) (domain or fragment)
chain: MATPWRNPAEEREKLAYRKQNMDDIDEEDDDLVGVSVRPKVPLRTMSYKLAIDMSHFIKEKGGLEGIYYSARRHRILDIYLEKEEGIIPDWQDYTSGPGIRYPKTFGWLWKLVPVNVSDEAQEDEEHYLMHPAQTSQWDDPWGEVLAWKFDPTLAYTYEAYVRYPEEFGS
notes: pGEX-4T1 with a TEV site; also called SIV-B; SIV Nef-B; source: E. coli BL21(DE3), purified (GSH resin, size exclusion chromatography)
stoichiometry N: 1.07
